Results as given in patent US20150344570A1 (published 2015).

Molecular target: T1, FcγRIIa R (human, UniProt P12318 34-217)
T1 construct: extracellular domain; also called FcgRIIa R type; 2aR
T1 sequence (looked up): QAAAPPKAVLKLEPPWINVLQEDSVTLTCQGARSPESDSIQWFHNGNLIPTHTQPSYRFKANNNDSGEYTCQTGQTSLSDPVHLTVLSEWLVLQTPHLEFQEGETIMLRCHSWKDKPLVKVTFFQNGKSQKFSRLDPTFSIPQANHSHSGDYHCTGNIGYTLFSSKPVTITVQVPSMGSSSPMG
Experiment: SPR (Biacore), captured antibody, FcγR as analyte; relative binding activity

Binder	He/Con_2aR
GpH7-A5/GpH7-B3 variant H268_01G/GpL16-k0 (antibody, human IgG1, kappa, also called He Ab H268_01G) heavy 1: not shown heavy 2: not shown light: DIVMTQSPLSLPVTPGEPASISCQASESLVHSNRNTYLHWYLQKPGQSPQLLIYKVSNRFSGVPDRFSGSGSGTDFTLKISRVEAEDVGVYYCSQNTHVPPTFGQGTKVEIERTVAAPSVFIFPPSDEQLKSGTASVVCLLNNFYPREAKVQWKVDNALQSGNSQESVTEQDSKDSTYSLSSTLTLSKADYEKHKVYACEVTHQGLSSPVTKSFNRGEC	124 % (GpH7-A5/GpH7-B3/GpL16-k0 = 100)
GpH7-A5/GpH7-B3 variant H268_05P/GpL16-k0 (antibody, human IgG1, kappa, also called He Ab H268_05P) heavy 1: not shown heavy 2: not shown light: DIVMTQSPLSLPVTPGEPASISCQASESLVHSNRNTYLHWYLQKPGQSPQLLIYKVSNRFSGVPDRFSGSGSGTDFTLKISRVEAEDVGVYYCSQNTHVPPTFGQGTKVEIERTVAAPSVFIFPPSDEQLKSGTASVVCLLNNFYPREAKVQWKVDNALQSGNSQESVTEQDSKDSTYSLSSTLTLSKADYEKHKVYACEVTHQGLSSPVTKSFNRGEC	106 % (GpH7-A5/GpH7-B3/GpL16-k0 = 100)
GpH7-A5/GpH7-B3 variant K326_18N/GpL16-k0 (antibody, human IgG1, kappa, also called He Ab K326_18N) heavy 1: not shown heavy 2: not shown light: DIVMTQSPLSLPVTPGEPASISCQASESLVHSNRNTYLHWYLQKPGQSPQLLIYKVSNRFSGVPDRFSGSGSGTDFTLKISRVEAEDVGVYYCSQNTHVPPTFGQGTKVEIERTVAAPSVFIFPPSDEQLKSGTASVVCLLNNFYPREAKVQWKVDNALQSGNSQESVTEQDSKDSTYSLSSTLTLSKADYEKHKVYACEVTHQGLSSPVTKSFNRGEC	115 % (GpH7-A5/GpH7-B3/GpL16-k0 = 100)
GpH7-A5/GpH7-B3 variant K326_08L/GpL16-k0 (antibody, human IgG1, kappa, also called He Ab K326_08L) heavy 1: not shown heavy 2: not shown light: DIVMTQSPLSLPVTPGEPASISCQASESLVHSNRNTYLHWYLQKPGQSPQLLIYKVSNRFSGVPDRFSGSGSGTDFTLKISRVEAEDVGVYYCSQNTHVPPTFGQGTKVEIERTVAAPSVFIFPPSDEQLKSGTASVVCLLNNFYPREAKVQWKVDNALQSGNSQESVTEQDSKDSTYSLSSTLTLSKADYEKHKVYACEVTHQGLSSPVTKSFNRGEC	137 % (GpH7-A5/GpH7-B3/GpL16-k0 = 100)
GpH7-A5/GpH7-B3 variant H268_20W/GpL16-k0 (antibody, human IgG1, kappa, also called He Ab H268_20W) heavy 1: not shown heavy 2: not shown light: DIVMTQSPLSLPVTPGEPASISCQASESLVHSNRNTYLHWYLQKPGQSPQLLIYKVSNRFSGVPDRFSGSGSGTDFTLKISRVEAEDVGVYYCSQNTHVPPTFGQGTKVEIERTVAAPSVFIFPPSDEQLKSGTASVVCLLNNFYPREAKVQWKVDNALQSGNSQESVTEQDSKDSTYSLSSTLTLSKADYEKHKVYACEVTHQGLSSPVTKSFNRGEC	113 % (GpH7-A5/GpH7-B3/GpL16-k0 = 100)
GpH7-A5/GpH7-B3 variant H268_11K/GpL16-k0 (antibody, human IgG1, kappa, also called He Ab H268_11K) heavy 1: not shown heavy 2: not shown light: DIVMTQSPLSLPVTPGEPASISCQASESLVHSNRNTYLHWYLQKPGQSPQLLIYKVSNRFSGVPDRFSGSGSGTDFTLKISRVEAEDVGVYYCSQNTHVPPTFGQGTKVEIERTVAAPSVFIFPPSDEQLKSGTASVVCLLNNFYPREAKVQWKVDNALQSGNSQESVTEQDSKDSTYSLSSTLTLSKADYEKHKVYACEVTHQGLSSPVTKSFNRGEC	100 % (GpH7-A5/GpH7-B3/GpL16-k0 = 100)
GpH7-A5/GpH7-B3 variant K334_04F/GpL16-k0 (antibody, human IgG1, kappa, also called He Ab K334_04F) heavy 1: not shown heavy 2: not shown light: DIVMTQSPLSLPVTPGEPASISCQASESLVHSNRNTYLHWYLQKPGQSPQLLIYKVSNRFSGVPDRFSGSGSGTDFTLKISRVEAEDVGVYYCSQNTHVPPTFGQGTKVEIERTVAAPSVFIFPPSDEQLKSGTASVVCLLNNFYPREAKVQWKVDNALQSGNSQESVTEQDSKDSTYSLSSTLTLSKADYEKHKVYACEVTHQGLSSPVTKSFNRGEC	110 % (GpH7-A5/GpH7-B3/GpL16-k0 = 100)
GpH7-A5/GpH7-B3 variant I332_14T/GpL16-k0 (antibody, human IgG1, kappa, also called He Ab I332_14T) heavy 1: not shown heavy 2: not shown light: DIVMTQSPLSLPVTPGEPASISCQASESLVHSNRNTYLHWYLQKPGQSPQLLIYKVSNRFSGVPDRFSGSGSGTDFTLKISRVEAEDVGVYYCSQNTHVPPTFGQGTKVEIERTVAAPSVFIFPPSDEQLKSGTASVVCLLNNFYPREAKVQWKVDNALQSGNSQESVTEQDSKDSTYSLSSTLTLSKADYEKHKVYACEVTHQGLSSPVTKSFNRGEC	105 % (GpH7-A5/GpH7-B3/GpL16-k0 = 100)
GpH7-A5/GpH7-B3 variant K326_20W/GpL16-k0 (antibody, human IgG1, kappa, also called He Ab K326_20W) heavy 1: not shown heavy 2: not shown light: DIVMTQSPLSLPVTPGEPASISCQASESLVHSNRNTYLHWYLQKPGQSPQLLIYKVSNRFSGVPDRFSGSGSGTDFTLKISRVEAEDVGVYYCSQNTHVPPTFGQGTKVEIERTVAAPSVFIFPPSDEQLKSGTASVVCLLNNFYPREAKVQWKVDNALQSGNSQESVTEQDSKDSTYSLSSTLTLSKADYEKHKVYACEVTHQGLSSPVTKSFNRGEC	131 % (GpH7-A5/GpH7-B3/GpL16-k0 = 100)
GpH7-A5/GpH7-B3 variant K326_03V/GpL16-k0 (antibody, human IgG1, kappa, also called He Ab K326_03V) heavy 1: not shown heavy 2: not shown light: DIVMTQSPLSLPVTPGEPASISCQASESLVHSNRNTYLHWYLQKPGQSPQLLIYKVSNRFSGVPDRFSGSGSGTDFTLKISRVEAEDVGVYYCSQNTHVPPTFGQGTKVEIERTVAAPSVFIFPPSDEQLKSGTASVVCLLNNFYPREAKVQWKVDNALQSGNSQESVTEQDSKDSTYSLSSTLTLSKADYEKHKVYACEVTHQGLSSPVTKSFNRGEC	141 % (GpH7-A5/GpH7-B3/GpL16-k0 = 100)
GpH7-A5/GpH7-B3 variant H268_15Y/GpL16-k0 (antibody, human IgG1, kappa, also called He Ab H268_15Y) heavy 1: not shown heavy 2: not shown light: DIVMTQSPLSLPVTPGEPASISCQASESLVHSNRNTYLHWYLQKPGQSPQLLIYKVSNRFSGVPDRFSGSGSGTDFTLKISRVEAEDVGVYYCSQNTHVPPTFGQGTKVEIERTVAAPSVFIFPPSDEQLKSGTASVVCLLNNFYPREAKVQWKVDNALQSGNSQESVTEQDSKDSTYSLSSTLTLSKADYEKHKVYACEVTHQGLSSPVTKSFNRGEC	110 % (GpH7-A5/GpH7-B3/GpL16-k0 = 100)
